Ten substances from US20100196267A1 can be followed below.

One experiment addresses CD22 (human) (UniProt P20273). Put plainly: indirect flow cytometry on Namalwa cells, FITC-GAM 2nd Ab (none 2.91).
Experiment [1] has as its target CD22 on dog lymphoma cells (dog). Put plainly: flow cytometry on dog lymphoma aspirate, murine MAbs (none 3.85). Background: Flow cytometry measures light scatter and fluorescence of single cells or particles in a stream.
The target is the same in experiment [2]. Put plainly: flow cytometry on dog lymphoma aspirate, murine MAbs (none 3.37).
Experiment [3] shares this target. Kind of experiment: flow cytometry on dog lymphoma aspirate, humanized MAbs (none 4.48).
Experiment [4] has the same target. Put plainly: flow cytometry on dog lymphoma aspirate, humanized MAbs (none 3.24).
The target of experiment [5] is CD74 (human) (UniProt P04233). Kind of experiment: indirect flow cytometry, FITC-GAH Fc 2nd Ab, Ramos cells (none 3.1).
Sequence of CD74 (human) (P04233 whole entry): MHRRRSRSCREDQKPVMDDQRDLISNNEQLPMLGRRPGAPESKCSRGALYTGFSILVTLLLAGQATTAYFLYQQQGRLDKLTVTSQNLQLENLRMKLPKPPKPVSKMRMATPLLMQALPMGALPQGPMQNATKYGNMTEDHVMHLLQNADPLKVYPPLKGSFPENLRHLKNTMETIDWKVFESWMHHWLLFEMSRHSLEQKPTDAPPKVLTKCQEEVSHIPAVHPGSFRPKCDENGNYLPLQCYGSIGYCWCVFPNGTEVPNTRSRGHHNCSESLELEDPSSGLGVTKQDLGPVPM
Experiment [6] addresses CD74 (human) (UniProt P04233). Put plainly: indirect FACS, FITC-GAH Fc 2nd Ab, Ramos cells (none 3.1); number split over two cells.
The target in experiment [7] is CD74 on dog lymphoma cells (dog). Kind of experiment: flow cytometry on dog lymphoma aspirate, humanized MAbs (none 4.48).
Experiment [8] concerns the target CD74 (human) (UniProt P04233). Put plainly: indirect flow cytometry, FITC-GAH Fc 2nd Ab, RL cells (none 2.4).
In experiment [9] the target is CD74 (human) (UniProt P04233). Kind of experiment: indirect FACS, FITC-GAH Fc 2nd Ab, SU-DHL-6 cells (none 4.6); number split over two cells.
Experiment [10] has as its target CD74 (human) (UniProt P04233). Kind of experiment: indirect FACS, FITC-GAH Fc 2nd Ab, Namalwa cells (none 2.5); number split over two cells.
Experiment [11] has as its target CD74 (human) (UniProt P04233). Put plainly: indirect flow cytometry, FITC-GAH Fc 2nd Ab, Raji cells (none 6.9).
Experiment [12] concerns the target CD74 (human) (UniProt P04233). Kind of experiment: indirect flow cytometry, FITC-GAH Fc 2nd Ab, Daudi cells (none 3.2).
The target in experiment [13] is CD74 (human) (UniProt P04233). Kind of experiment: indirect FACS, FITC-GAH Fc 2nd Ab, Raji cells (none 6.8); number split over two cells.
The target of experiment [14] is CD74 (human) (UniProt P04233). Kind of experiment: indirect FACS, FITC-GAH Fc 2nd Ab, WSU-FSCCL cells (none 2.6); number split over two cells.
Experiment [15] addresses CD74 (human) (UniProt P04233). Put plainly: indirect flow cytometry, FITC-GAH Fc 2nd Ab, SU-DHL-6 cells (none 4.6).
In experiment [16] the target is CD74 (human) (UniProt P04233). Put plainly: indirect flow cytometry, FITC-GAH Fc 2nd Ab, Namalwa cells (none 2.6).
Experiment [17] deals with CD74 on dog lymphoma cells (dog). Put plainly: flow cytometry on dog lymphoma aspirate, humanized MAbs (none 3.24).
Experiment [18] concerns the target CD74 (human) (UniProt P04233). Kind of experiment: indirect FACS, FITC-GAH Fc 2nd Ab, Daudi cells (none 3.1); number split over two cells.
Experiment [19] has as its target CD74 (human) (UniProt P04233). Put plainly: indirect flow cytometry, FITC-GAH Fc 2nd Ab, WSU-FSCCL cells (none 2.7).
Experiment [20] deals with CD74 (human) (UniProt P04233). Put plainly: indirect flow cytometry on Namalwa cells, FITC-GAH 2nd Ab (none 2.52).
Experiment [21] concerns the target HLA-DR (human). Kind of experiment: indirect flow cytometry on Namalwa cells, FITC-GAM 2nd Ab (none 2.91); irrelevant antibody.
Experiment [22] deals with HLA-DR (human). Put plainly: indirect flow cytometry on Namalwa cells, FITC-GAM 2nd Ab (none 2.91); control antibody.
For experiment [23], the target named is antigen on dog lymphoma cells recognised by L243 and hL243 (dog). Kind of experiment: flow cytometry on dog lymphoma aspirate, murine MAbs (none 3.85); control antibody.
Experiment [24] shares this target. Put plainly: flow cytometry on dog lymphoma aspirate, murine MAbs (none 3.37); control antibody.
For the next experiment, the target named is T1, CD20 (human) (UniProt P11836).
T1 sequence (looked up): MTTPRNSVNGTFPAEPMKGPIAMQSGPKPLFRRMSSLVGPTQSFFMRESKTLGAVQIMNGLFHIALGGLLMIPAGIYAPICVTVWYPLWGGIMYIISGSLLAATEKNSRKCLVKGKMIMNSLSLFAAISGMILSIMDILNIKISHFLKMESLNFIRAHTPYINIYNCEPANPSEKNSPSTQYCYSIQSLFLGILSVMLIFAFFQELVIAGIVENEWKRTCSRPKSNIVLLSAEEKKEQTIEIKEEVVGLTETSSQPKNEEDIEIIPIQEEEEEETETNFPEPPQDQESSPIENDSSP
Put plainly: indirect flow cytometry on Namalwa cells, FITC-GAM 2nd Ab (none 2.91).

Experiment [25] has as its target T2, CD20 on dog lymphoma cells (dog) (UniProt Q3C2E2).
T2 sequence (looked up): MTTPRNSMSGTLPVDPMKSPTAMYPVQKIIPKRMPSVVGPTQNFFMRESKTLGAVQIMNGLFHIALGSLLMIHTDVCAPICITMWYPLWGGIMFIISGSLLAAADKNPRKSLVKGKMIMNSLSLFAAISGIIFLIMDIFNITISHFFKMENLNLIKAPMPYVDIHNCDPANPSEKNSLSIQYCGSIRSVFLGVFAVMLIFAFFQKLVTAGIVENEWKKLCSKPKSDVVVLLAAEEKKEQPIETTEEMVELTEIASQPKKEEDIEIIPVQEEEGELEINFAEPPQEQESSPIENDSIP
Kind of experiment: flow cytometry on dog lymphoma aspirate, murine MAbs (none 3.85).

The target in experiment [26] is T2, CD20 on dog lymphoma cells (dog). Put plainly: flow cytometry on dog lymphoma aspirate, murine MAbs (none 3.37).
Experiment [27] concerns the target CD74 (human) (UniProt P04233). Kind of experiment: indirect flow cytometry on Namalwa cells, FITC-GAM 2nd Ab (none 2.91).
Experiment [28] deals with CD74 on dog lymphoma cells (dog). Kind of experiment: flow cytometry on dog lymphoma aspirate, murine MAbs (none 3.85).
Experiment [29] shares this target. Put plainly: flow cytometry on dog lymphoma aspirate, murine MAbs (none 3.37).
Experiment [30] concerns the target Fcγ receptors on effector cells. Put plainly: cell-based or functional assay.
In experiment [31] the target is HLA-DR (human). Put plainly: indirect flow cytometry on Namalwa cells, FITC-GAH 2nd Ab (none 2.52); irrelevant antibody.

In the case of LL2 (murine) (antibody), the GEO MEAN Fluorescence in the experiment with CD22 (human) was 10.5. In experiment [1], this substance registered a % of 5.05%. Further, in experiment [2], the Mean FL turned out to be 3.73.

In turn, hLL2 (antibody) registered a % in experiment [3] of 4.85%. In [4], this substance registered a Mean FL of 3.37.

Regarding hLL1 (antibody), the Geometric Mean Fluorescence with CD74 (human) [5] came to 23.3; in the experiment with CD74 (human) [6] it was 23.2; with CD74 (human) [8], 7.9; with CD74 (human) [9], 17.3; in the experiment with CD74 (human) [10], 7.81; with CD74 (human) [11], 95.1. Besides, the Geometric Mean Fluorescence was determined as 48.8 with CD74 (human) [12]; 95.1 in the experiment with CD74 (human) [13]; 8.66 with CD74 (human) [14]; 17.3 with CD74 (human) [15]; 7.8 in the experiment with CD74 (human) [16]; 48.8 with CD74 (human) [18]. Further, in the experiment with CD74 (human) [19], the Geometric Mean Fluorescence is 8.7. The substance further came in with a % in experiment [7] of 4.71%. In experiment [17], the Mean FL is 3.33. In addition, the GEO MEAN Fluorescence with CD74 (human) [20] is 10.1.

Substance RS7 (murine) (antibody) displayed a GEO MEAN Fluorescence with HLA-DR (human) [21] of 3.39.

Ag8 (antibody) yielded a GEO MEAN Fluorescence with HLA-DR (human) [22] of 3.64. In experiment [23], this substance returned a % of 2.81%. In experiment [24], the Mean FL is 3.04.

m2B8 (antibody) yielded a GEO MEAN Fluorescence with CD20 (human) of 6.16. Moreover, the % in [25] came to 2.61%. For the same substance, in [26], the Mean FL was found to be 3.11.

In turn, LL1 (murine) (antibody) yielded a GEO MEAN Fluorescence in the experiment with CD74 (human) [27] of 17.3. In experiment [28], the % is 6.69%. The substance also registered a Mean FL in [29] of 4.01.

On to hL243γ1 (antibody), for which the ADCC on Daudi cells, specific lysis corrected for the effect on effector cells (5 µg/ml, effector:target 50:1, 4 h) in experiment [30] was 48%.

As to hRS7 (antibody), the GEO MEAN Fluorescence with HLA-DR (human) [31] amounted to 2.47.

hL243γ4P (antibody) showed an ADCC on Daudi cells, specific lysis corrected for the effect on effector cells (5 µg/ml, effector:target 50:1, 4 h) in experiment [30] of 12%.
